According to PMC5458082, “Fibril polymorphism affects immobilized non-amyloid flanking domains of huntingtin exon1 rather than its polyglutamine core” (Nature Communications, 2017):

B1: mutant huntingtin exon1 with a 44-residue polyQ domain, released from the MBP fusion protein by Factor Xa (domain or fragment)
chain: MATLEKLMKAFESLKSFQQQQQQQQQQQQQQQQQQQQQQQQQQQQQQQQQQQQQQQQQQQQPPPPPPPPPPPQLPQPPPQAQPLLPQPQPPPPPPPPPPGPAVAEEPLHRPSGS
notes: huntingtin exon1; The polyQ domain is expanded to 44 Gln against the UniProt entry. numbers count on: this Q44 construct from Met1; linker before the C-terminal His6, translated from the printed DNA; Uniformly 13C,15N-labelled for the ssNMR samples; Forms narrow (~6 nm) fibrils at 37 °C and wide (~15 nm) fibrils at 22 °C; both are the same chain; also called htt exon1; mutant htt exon1; source: …
B2: htt^NTQ23P10K2 peptide (peptide)
peptide: MATLEKLMKAFESLKSFQQQQQQQQQQQQQQQQQQQQQQQPPPPPPPPPPKK
notes: written out from the printed formula Q23P10K2: 23 Gln, 10 Pro, 2 Lys; also called shorter peptides with a 23-residue polyQ domain

What was measured:
[1] = biological target: the molecule itself; assay: fibril formation, seen by negative-stain TEM + FTIR + MAS solid-state NMR; htt exon1 released from the MBP fusion by Factor Xa at 22 or 37 °C in PBS pH 7.4 with 0.02% sodium azide; mature fibrils pelleted and washed
[2] = biological target: B1; assay: seeded and unseeded aggregation kinetics (ThT fluorescence + HPLC-based sedimentation assay); disaggregated htt^NTQ23P10K2 peptide in PBS pH 7.0 at 37 °C, with or without 20 mol-% sonicated htt exon1 fibril seeds formed at 22 or 37 °C; details: both partners purified

B1: binds [1].

B2: binds [2].
